Laboratory results published in publication PMC11389873 (Free radical biology & medicine, 2022).

Legend:
[1] = molecular target: Purified recombinant human apo-IDO1 (His6-IDO1), Alexafluor 647-labelled (human, UniProt P14902 1-403, Alexafluor 647 on Cys groups); assay: fluorescence polarisation
[2] = molecular target: Purified recombinant human apo-TDO (GST-TDO), Alexafluor 647-labelled (human, UniProt P48775 1-406, Alexafluor 647 on Cys groups); assay: fluorescence polarisation
Chain of Purified recombinant human apo-TDO (GST-TDO), Alexafluor 647-labelled (P48775 whole entry): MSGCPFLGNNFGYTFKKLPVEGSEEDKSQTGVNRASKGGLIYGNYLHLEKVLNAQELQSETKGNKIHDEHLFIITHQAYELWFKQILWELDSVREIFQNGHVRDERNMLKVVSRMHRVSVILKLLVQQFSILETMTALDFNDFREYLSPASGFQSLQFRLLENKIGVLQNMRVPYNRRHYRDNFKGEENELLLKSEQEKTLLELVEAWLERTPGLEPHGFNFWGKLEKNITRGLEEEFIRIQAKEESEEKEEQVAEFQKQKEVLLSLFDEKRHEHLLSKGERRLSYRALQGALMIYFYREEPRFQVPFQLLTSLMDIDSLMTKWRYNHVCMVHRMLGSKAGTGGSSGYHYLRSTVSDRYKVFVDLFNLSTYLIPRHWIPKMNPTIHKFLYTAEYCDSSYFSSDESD

Chain of Purified recombinant human apo-IDO1 (His6-IDO1), Alexafluor 647-labelled (P14902 whole entry): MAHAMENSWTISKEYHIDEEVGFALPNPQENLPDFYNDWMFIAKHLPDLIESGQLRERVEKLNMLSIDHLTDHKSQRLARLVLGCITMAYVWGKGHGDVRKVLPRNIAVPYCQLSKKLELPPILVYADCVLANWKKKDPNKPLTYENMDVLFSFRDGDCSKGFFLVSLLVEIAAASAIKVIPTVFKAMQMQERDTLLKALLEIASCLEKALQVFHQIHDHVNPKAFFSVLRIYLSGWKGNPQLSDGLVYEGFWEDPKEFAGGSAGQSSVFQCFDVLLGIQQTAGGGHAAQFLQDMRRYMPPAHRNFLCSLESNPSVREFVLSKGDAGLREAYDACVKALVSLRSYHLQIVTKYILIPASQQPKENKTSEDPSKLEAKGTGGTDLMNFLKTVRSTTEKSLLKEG

B1: Purified GST-tagged human GAPDH (natural protein)
chain: not shown
Kd [1]: 1500 ± 1300 nM
Kd [2]: 1200 ± 400 nM
